For twelve sequences, activity results are on record in US20230008694.

Test in all cases: cell_activity
Data set [1] relates to GmFAD3_T08-R1 half-TALEN (synthetic (TAL effector-FokI)).
Data set [2] relates to GmFAD3_T09-R1 half-TALEN (synthetic (TAL effector-FokI)).
In data set [3] the test system is GmFAD2_T04-R1 half-TALEN (synthetic (TAL effector-FokI)). To be noted: pair with T04-L1 at FAD2-1A (FAD2-1B 3.54).
Data set [4] relates to GmFAD2_T02-L1 half-TALEN (synthetic (TAL effector-FokI)). To be noted: pair with T02-R1 at FAD2-1A (FAD2-1B 1.19).
The test system of data set [5] is GmFAD2_T03-L1 half-TALEN (synthetic (TAL effector-FokI)). As to conditions: pair with T03-R1 at FAD2-1A (FAD2-1B 3.94).
The test system of data set [6] is GmFAD2_T01-L1 half-TALEN (synthetic (TAL effector-FokI)). To be noted: pair with T01-R1 at FAD2-1A (FAD2-1B 3.41); soybean protoplasts.
In data set [7] the test system is GmFAD2_T03-R1 half-TALEN (synthetic (TAL effector-FokI)). To be noted: pair with T03-L1 at FAD2-1A (FAD2-1B 3.94).
For data set [8], the system named is GmFAD2_T02-R1 half-TALEN (synthetic (TAL effector-FokI)). To be noted: pair with T02-L1 at FAD2-1A (FAD2-1B 1.19).
The test system of data set [9] is GmFAD3_T08-L1 half-TALEN (synthetic (TAL effector-FokI)).
In data set [10] the test system is GmFAD3_T09-L1 half-TALEN (synthetic (TAL effector-FokI)).
The subject of data set [11] is GmFAD2_T01-R1 half-TALEN (synthetic (TAL effector-FokI)). To be noted: pair with T01-L1 at FAD2-1A (FAD2-1B 3.41).
The test system of data set [12] is GmFAD2_T04-L1 half-TALEN (synthetic (TAL effector-FokI)). As to conditions: pair with T04-R1 at FAD2-1A (FAD2-1B 3.54).

Turning to “CACATTGAGAAGGATGA (double strand) [GmFAD3_T08-R1 half-site]”, the activity in data set [1] (pair with T08-L1 at FAD3A (FAD3B 14.57), with T09-L1 12.37 at FAD3A, 11.17 at FAD3B) came to 22.9 % NHEJ; in [2] (pair with T08-L1 at FAD3A (FAD3B 1.80), mismatched right half-site, with T09-L1 6.46 (FAD3B 3.61)), 6.56 % NHEJ.

Turning to “CATGTTGAGAAGGATGA (double strand) [GmFAD3_T09-R1 half-site]”, the activity in [1] (pair with T09-L1 at FAD3C, mismatched right half-site, with T08-L1 3.59) is 5.98 % NHEJ; in [2] (pair with T09-L1 at FAD3C, with T08-L1 7.60), 11.3 % NHEJ.

With “TAGGTGGTGGCAATGTA (double strand) [GmFAD2_T04-R1 half-site]”, the activity in data set [3] stood at 4.67 % NHEJ.

“TATGTTGTTTATGACCT (double strand) [GmFAD2_T02-L1 half-site]” yielded an activity in [4] of 0.91 % NHEJ.

The sequence “TCCTATGTTGTTTATGA (double strand) [GmFAD2_T03-L1 half-site]” registered an activity in [5] of 4.91 % NHEJ.

In data set [6], “TCTCAAGGGTTCCAAAC (double strand) [GmFAD2_T01-L1 half-site]” registered an activity of 3.95 % NHEJ.

“TGGCAATGTAGAAAATG (double strand) [GmFAD2_T03-R1 half-site]” yielded an activity in data set [7] of 4.91 % NHEJ.

“TGGTGGCAATGTAGAAA (double strand) [GmFAD2_T02-R1 half-site]”: the activity in data set [8] was found to be 0.91 % NHEJ.

In the case of “TTAGCCACAGAACTCAC (double strand) [GmFAD3_T08-L1 half-site]”, the activity is 22.9 % NHEJ in [9] (pair with T08-R1 at FAD3A (FAD3B 14.57), soybean protoplasts 48 h) and 12.4 % NHEJ in data set [10] (pair with T08-R1 at FAD3A (FAD3B 11.17), mismatched left half-site).

On to “TTAGCCACAGGACTCAC (double strand) [GmFAD3_T09-L1 half-site]”, for which the activity is 7.6 % NHEJ in [9] (pair with T09-R1 at FAD3C, mismatched left half-site, with T08-R1 3.59) and 11.3 % NHEJ in data set [10] (pair with T09-R1 at FAD3C, multiplex T09-L1/T08-R1/T09-R1 21.42 (Table 2)).

In [11], “TTGAGTTGGCCAACAGT (double strand) [GmFAD2_T01-R1 half-site]” came in with an activity of 3.95 % NHEJ.

The sequence “TTGTTTATGACCTTTCA (double strand) [GmFAD2_T04-L1 half-site]” came in with an activity in data set [12] of 4.67 % NHEJ.
